The values that follow come from paper PMC3517063 (Proteomics, 2012).

The data set deals with the molecule itself. The data set is described as follows: cross-linking.

B1: proteasomal 20S core particle subunit α1 with His6 tag (α1-His6) (natural protein, Haloferax volcanii, UniProt Q9V2V6 1-252, looked up)
chain: MQGQAQQQAYDRGITIFSPDGRLYQVEYAREAVKRGTASIGVRTPEGVVLAADKRSRSPLMEPTSVEKIHKADDHIGIASAGHVADARQLIDFARRQSQVNRLRYGEPIGIETLTKEVTDHIQQYTQVGGARPFGVALLIGGVENGTPRLYETDPSGTPYEWKAVSIGADRGDHQEHLEENFRDDLTLDEGIELALEAIASTSDEGTAPDGVDVATVSAETERFVELSNDEIESYLEANDLLATEDDEQTEE
As for B1, the binding result was “binds”.

B2: proteasomal 20S core particle subunit α2 with C-terminal His6 tag (α2-His6) (natural protein, Haloferax volcanii, UniProt Q9V2V5 1-249, looked up)
chain: MNRNDKQAYDRGTSLFSPDGRIYQVEYAREAVKRGAPVLGVRTADGVVLAALRSTPSELMEAESIEKLHKLDDALGAATAGHVADARKLVDFARTTAQREHLRYGEPIGVETLTKTITDNIQESTQSGGTRPYGASLLIGGVENGSGRLFATDPSGTPQEWKAVAIGGHREDVQAALEDGYAEDLSLEDGLALAVEALVAADEEIESDELNLVTVSEAGYEIVDEETIAELFADATADDESDETDEREE
As for B2, the binding result was “binds”.
